{"source": "patent US6582902B1", "about": "“Method for deriving epitopes” (priority 1992, dated 2003)", "molecules": {"B1": {"name": "D10 RNA: single RNA species selected from the degenerate pool by anti-g10 serum (SEQ ID NO:3); U1 stem II with loop UGGUGGAGCA (nucleic acid)", "chain": "GGGCCACCAACGACAUUGGGCGAGGCUUAUCCUGGUGGAGCAGGAUGUGCUGACCCCGUUGAUAUAAAUAGUGCCCAUGGAUC", "modifications": "chemistry not given here", "notes": "U1 stem II with loop UGGUGGAGCA"}}, "key": {"[1]": {"system": "g10-reactive antibodies (anti-g10 serum)", "test": "Competition for immunoprecipitation of [35S] g10-U1-A fusion protein by anti-g10 serum", "type": "binding, rabbit", "from_the_text": "Panel A: Western blot of E. coli extracts containing various U1-A protein constructs. All extracts were produced from induced E. coli cells containing recombinant pET-8c T7 expression vectors in accordance with known techniques. See F. Studier et al., Meth. Enzym. 185, 60-89 (1991). U1-A cDNA was cloned into pET-8c either attached or not attached to the g10 peptide. Lanes: 1, 5 and 9: the pET-8c vector alone; 2, 6 and 10: g10-U1-A protein; 3, 7 and 11: U1-A protein; 4, 8 and 12: total HeLa cell extracts. Lanes 1-4 were probed with pre-immune rabbit serum; lanes 5-8 were probed with anti-g10 serum; and lanes 9-12 were probed with a U1/U2-specific autoimmune serum (patient). EW reacts with U1 RNA, U1-70K (70 kDa), U1-A (31 kDa) and U2-A′ (28.4 kDa) (lane 12). Panel B: Immunoprecipitation and competition analysis of [^35S]-methionine-labeled U1-A and g10-U1-A proteins expressed by in vitro transcription, and subsequent translation in rabbit reticulocyte lysates. Lanes: 1 and 2 show the amount of U1-A and g10-U1-A translation product, respectively, added to each immunoprecipitation reaction; 3: blank; 4 and 5: U1-A and g10-U1-A precipitated with serum EW (reactive with U1-A); 6 and 7: U1-A and g10-U1-A, respectively, precipitated with anti-g10 serum. In lanes 8-12, g10-U1-A was precipitated with anti-g10 serum in the presence of varying amounts of competitors as follows: lanes 8-11 contained the g10 peptide at concentrations of 27.8, 83.3, 250 and 750 nM, respectively; lane 12 contained a control peptide (sequence GKSRGFAFVEFK-amide) (SEQ ID NO:4) at a concentration of 25 mM. The faint lower band in all lanes represents either a degradation product or a premature translation termination product and is seen consistently in U1-A translations.\n[^32P] labeled in vitro transcribed D10 RNA or [^35S] labeled in vitro translated g10 fusion protein (g10-U1A) was immunoprecipitated by the anti-g10 serum in the presence of various competitors. D10 RNA and g10 fusion protein bound in the immunoprecipitations were analyzed using denaturing polyacrylamide gels and autoradiography. […]"}, "anti-g10 serum": {"system": "anti-g10 serum", "test": "Selection of RNA from degenerate pool by immunoprecipitation with anti-g10 serum", "type": "binding, rabbit", "settings": "three cycles, high stringency washing (0.5 M urea)", "from_the_text": "Whereas the g10 peptide is a useful epitope tag for analyzing complexes containing protein, an RNA epitope tag would be equally useful for studying complexes containing RNA. The anti-g10 serum was presented with a degenerate pool of RNA containing 1,048,576 unique species, assuming incorporation of four different nucleotides at 10 randomized loop positions (FIG. 2). These RNAs were transcribed from approximately 1×10^11 molecules of degenerate oligodeoxynucleotide template (D. Tsai et al., Nucl. Acids Res. 19, 4931-4936 (1991)). Assuming that most templates are transcribed at least once, all possible RNA species should be redundantly represented. RNA was prepared by in vitro transcription of PCR-generated templates in accordance with known techniques (D. Tsai et al., Nucl. Acids Res. 19, 4931-4936 (1991)). The transcripts were immunoprecipitated with the anti-g10 serum as follows: Protein A Sepharose beads (Sigma, 4 mg per […]) were washed in NT2 buffer (50 mM Tris [pH 7.4], 150 mM NaCl, 0.05% Nonidet P-40) (C. Query et al., Cell 57, 89-101 (1989)), mixed with […] of anti-g10 serum, incubated on ice for 10 min, and washed in NT2. […]"}}, "data": [{"molecule": "B1", "values": [{"measurement": "competition with g10 fusion protein for binding to the antibody", "setting": "[1]; FIG. 5C, 0.7 nM competitor RNA", "value": "able to compete"}, {"measurement": "competition with [35S] labeled g10 fusion protein, increasing amounts of competitor", "setting": "[1]; FIG. 5D, 0.0175-1.05 nM D10 RNA", "value": "able to progressively compete"}, {"measurement": "isolates obtained after antibody selection", "setting": "anti-g10 serum", "value": "45 out of 45"}]}]}
